Measurements: patent US20240279310A1
Like-named read-outs stand apart in the source and are kept apart here.

Tests used:
Test in all cases: cell-based or functional assay
[1] = biological target: APRIL+BAFF (15 nM APRIL+10 nM BAFF) in combination
[2] = biological target: APRIL+BAFF (15 nM APRIL+10 nM BAFF) in combination; remark: listed apart in the source
[3] = biological target: recombinant human APRIL (Tonbo Biosciences) (human) (UniProt O75888)
Chain of recombinant human APRIL (Tonbo Biosciences) (human) (O75888 105-250 limits assumed): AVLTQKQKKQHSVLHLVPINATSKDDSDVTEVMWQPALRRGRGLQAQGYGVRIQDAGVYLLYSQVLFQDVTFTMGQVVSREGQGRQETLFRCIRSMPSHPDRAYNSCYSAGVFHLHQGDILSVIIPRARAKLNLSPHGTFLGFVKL

B1: 26 TACI CRD2-Fc (TACI vTD SEQ ID NO:26, K77E/F78Y/Y102D; Fc fusion SEQ ID NO: 167) (Fc fusion)
chain: SLSCRKEQGEYYDHLLRDCISCASICGQHPKQCADFCENKLRSGSGGGGSEPKSSDKTHTCPPCPAPEAEGAPSVFLFPPKPKDTLMISRTPEVTCVVVDVSHEDPEVKFNWYVDGVEVHNAKTKPREEQYNSTYRVVSVLTVLHQDWLNGKEYKCKVSNKALPAPIEKTISKAKGQPREPQVYTLPPSRDELTKNQVSLTCLVKGFYPSDIAVEWESNGQPENNYKTTPPVLDSDGSFFLYSKLTVDKSRWQQGNVFSCSVMHEALHNHYTQKSLSLSPG
- IC50 (pM) BAFF + APRIL [1]: 1390 pM

B2: belimumab, anti-BAFF monoclonal antibody (antibody, INN chains, looked up, V domains shown)
VH: QVQLQQSGAEVKKPGSSVRVSCKASGGTFNNNAINWVRQAPGQGLEWMGGIIPMFGTAKYSQNFQGRVAITADESTGTASMELSSLRSEDTAVYYCARSRDLLLFPHHALSPWGRGTMVTVSS
VL: SSELTQDPAVSVALGQTVRVTCQGDSLRSYYASWYQQKPGQAPVLVIYGKNNRPSGIPDRFSGSSSGNTASLTITGAQAEDEADYYCSSRDSSGNHWVFGGGTELTVLG
- IC50 (pM) BAFF + APRIL [2]: > 100000 pM

B3: anti-APRIL mAb BION-1301 (antibody, INN chains, looked up, V domains shown)
VH: QVQLVQSGAEVKKPGASVKVSCKASGYTFTDYTIHWVRQATGQGLEWMGWIYPLRGSINYAQKFQGRVTMTADKSISTVYMELSSLRSEDTAVYFCARHGAYYSNAFDYWGQGTLVTVSS
VL: EIVMTQSPATLSVSPGERATLSCRASESVDNDGIRFLHWYQQKPGQAPRLLIYRASTRATGIPARFSGSGSRTEFTLTISSLQSEDFAVYYCQQSNKDPYTFGGGTKVEIK
- IC50 (pM) BAFF + APRIL [2]: > 100000 pM
- IC50 (pM) APRIL [3]: 4900 pM

B4: atacicept (WT TACI-Fc sequences corresponding to atacicept, containing WT TACI 30-110; SEQ ID NO:132) (Fc fusion)
chain: AMRSCPEEQYWDPLLGTCMSCKTICNHQSQRTCAAFCRSLSCRKEQGKFYDHLLRDCISCASICGQHPKQCAYFCENKLRSEPKSSDKTHTCPPCPAPEAEGAPSVFLFPPKPKDTLMISRTPEVTCVVVDVSHEDPEVKFNWYVDGVEVHNAKTKPREEQYNSTYRVVSVLTVLHQDWLNGKEYKCKVSNKALPSSIEKTISKAKGQPREPQVYTLPPSRDELTKNQVSLTCLVKGFYPSDIAVEWESNGQPENNYKTTPPVLDSDGSFFLYSKLTVDKSRWQQGNVFSCSVMHEALHNHYTQKSLSLSPGK
- IC50 (pM) BAFF + APRIL [1]: 7720 pM
